# Data taken from patent US20260216242A1 (ALMAC DISCOVERY, published 2026).
# Residue numbers refer to the chain shown, from its start. Numbers in names are those of the source.
# T1: human ALPI (intestinal alkaline phosphatase) expressed on the surface of CHO cells (human, UniProt P09923 20-503)
# T1 sequence (looked up): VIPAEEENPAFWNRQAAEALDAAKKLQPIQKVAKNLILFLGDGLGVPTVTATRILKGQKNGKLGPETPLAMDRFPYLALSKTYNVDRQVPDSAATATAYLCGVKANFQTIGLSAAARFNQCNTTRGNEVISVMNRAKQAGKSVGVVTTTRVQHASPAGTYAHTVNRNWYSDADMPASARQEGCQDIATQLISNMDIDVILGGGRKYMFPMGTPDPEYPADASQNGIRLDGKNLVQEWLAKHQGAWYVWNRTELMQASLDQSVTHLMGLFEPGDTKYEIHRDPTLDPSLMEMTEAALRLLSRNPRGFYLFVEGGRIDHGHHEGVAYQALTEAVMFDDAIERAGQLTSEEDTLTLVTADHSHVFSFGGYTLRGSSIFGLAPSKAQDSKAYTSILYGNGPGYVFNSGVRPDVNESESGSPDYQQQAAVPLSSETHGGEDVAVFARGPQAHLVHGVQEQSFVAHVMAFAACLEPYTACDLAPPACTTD
# T2: human ALPL (tissue non-specific alkaline phosphatase) expressed on the surface of CHO cells (human, UniProt P05186 18-501)
# T2 sequence (looked up): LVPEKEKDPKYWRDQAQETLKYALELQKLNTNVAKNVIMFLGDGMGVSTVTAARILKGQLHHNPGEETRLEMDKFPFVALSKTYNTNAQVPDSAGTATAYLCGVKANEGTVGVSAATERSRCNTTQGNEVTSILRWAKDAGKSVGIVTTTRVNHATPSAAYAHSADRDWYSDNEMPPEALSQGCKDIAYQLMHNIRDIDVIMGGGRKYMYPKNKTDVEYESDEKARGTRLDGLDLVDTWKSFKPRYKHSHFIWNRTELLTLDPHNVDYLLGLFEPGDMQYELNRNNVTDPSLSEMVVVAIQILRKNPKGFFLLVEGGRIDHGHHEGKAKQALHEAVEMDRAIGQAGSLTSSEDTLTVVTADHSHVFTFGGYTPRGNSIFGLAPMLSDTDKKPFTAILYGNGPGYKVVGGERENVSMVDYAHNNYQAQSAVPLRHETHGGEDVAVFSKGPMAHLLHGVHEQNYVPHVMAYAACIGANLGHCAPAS
# T3: Human ALPL (leucine zipper) (human)
# T3 construct: Whole entry: fused with a cysteine stabilised leucine zipper and His tag; also called hALPL
# T3 chain: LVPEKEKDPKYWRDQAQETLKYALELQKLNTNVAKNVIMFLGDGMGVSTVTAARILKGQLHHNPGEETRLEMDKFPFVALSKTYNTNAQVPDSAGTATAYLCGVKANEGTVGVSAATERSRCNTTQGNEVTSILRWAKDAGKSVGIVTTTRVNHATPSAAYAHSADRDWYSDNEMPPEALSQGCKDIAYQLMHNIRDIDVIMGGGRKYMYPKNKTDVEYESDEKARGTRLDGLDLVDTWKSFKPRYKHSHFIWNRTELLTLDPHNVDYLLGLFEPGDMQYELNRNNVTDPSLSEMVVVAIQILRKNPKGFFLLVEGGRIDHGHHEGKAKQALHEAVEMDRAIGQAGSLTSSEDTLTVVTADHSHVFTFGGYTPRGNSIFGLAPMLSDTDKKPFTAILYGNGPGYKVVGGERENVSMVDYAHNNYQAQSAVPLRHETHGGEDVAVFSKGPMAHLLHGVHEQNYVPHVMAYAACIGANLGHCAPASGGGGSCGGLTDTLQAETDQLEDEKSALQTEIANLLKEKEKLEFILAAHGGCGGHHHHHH
# T4: ALPI His homodimer (human, UniProt P09923 20-503)
# T4 construct: Whole entry with His tag; used in ELISA and BLI; also called hALPI
# T4 sequence: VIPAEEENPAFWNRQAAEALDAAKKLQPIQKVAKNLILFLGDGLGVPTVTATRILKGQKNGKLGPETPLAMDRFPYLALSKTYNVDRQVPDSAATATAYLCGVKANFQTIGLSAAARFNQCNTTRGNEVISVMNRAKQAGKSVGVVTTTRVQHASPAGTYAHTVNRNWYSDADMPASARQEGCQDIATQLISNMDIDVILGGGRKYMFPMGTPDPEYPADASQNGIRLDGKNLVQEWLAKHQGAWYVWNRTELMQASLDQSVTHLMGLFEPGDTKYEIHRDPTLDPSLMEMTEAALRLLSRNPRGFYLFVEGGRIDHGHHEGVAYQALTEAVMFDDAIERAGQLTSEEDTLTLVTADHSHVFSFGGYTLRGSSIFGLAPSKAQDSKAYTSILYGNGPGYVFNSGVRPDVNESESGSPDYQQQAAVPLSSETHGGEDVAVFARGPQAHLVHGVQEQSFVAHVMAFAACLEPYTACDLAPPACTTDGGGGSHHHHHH
# B1: A06 E06-hFc (S239/442C T366Y/Y407T), [G4S]1 linker, MC-vc-PAB-MMAE conjugate, #710 (Fc fusion, DAR 4)
# chain 1: QVHLVESGGGLVQAGGSLRLSCAASGRTFLSMGWFRQAPGKEREFVAAISWTGGSTGYADSVKGRFTISRESDKETMYLQMNSLKPEDTAVYYCAARGDVYYGGDDATRYKYWGQGTQVTVSSGGGGSEPKSSDKTHTCPPCPAPELLGGPCVFLFPPKPKDTLMISRTPEVTCVVVDVSHEDPEVKFNWYVDGVEVHNAKTKPREEQYNSTYRVVSVLTVLHQDWLNGKEYKCKVSNKALPAPIEKTISKAKGQPREPQVYTLPPSRDELTKNQVSLYCLVKGFYPSDIAVEWESNGQPENNYKTTPPVLDSDGSFFLYSKLTVDKSRWQQGNVFSCSVMHEALHNHYTQKSLCLSPGK
# chain 2: QVHLVESGGGLVQAGGSLRLSCAASRRSFSEYAMGWFRQAPGKEREFVAAIGWSGVIEYADSVKGRFTISRDNAKDTVYLQMNSLKPEDTAVYYCAAGLGIRVVSQTPAYWGQGTQVTVSSGGGGSEPKSSDKTHTCPPCPAPELLGGPCVFLFPPKPKDTLMISRTPEVTCVVVDVSHEDPEVKFNWYVDGVEVHNAKTKPREEQYNSTYRVVSVLTVLHQDWLNGKEYKCKVSNKALPAPIEKTISKAKGQPREPQVYTLPPSRDELTKNQVSLTCLVKGFYPSDIAVEWESNGQPENNYKTTPPVLDSDGSFFLTSKLTVDKSRWQQGNVFSCSVMHEALHNHYTQKSLCLSPGK
# modifications: MC-vc-PAB-MMAE on Cys of S239C and S442C (EU numbering)
# notes: Biparatopic knob-into-hole VHH-hFc heterodimer, DAR 4; The assignment of T366Y to the first named VHH and Y407T to the second follows the order of the name; No paragraph spells out this pair; also called A06-E06-hFc-vcPAB-MMAE; A06-E06 hFc-vc-MMAE
# B2: A06 E10-hFc (S239/442C T366Y/Y407T), [G4S]1 linker, MC-vc-PAB-MMAE conjugate, #711 (Fc fusion, DAR 4)
# chain 1: B1 chain 1
# chain 2: QVQLVESGGGLVQAGGSLRLSCAVSGRALSDYNIGWFRQAPGKEREFVARKTWDGSSTRYDDSVKGRFTVSIEDAKNTAYLQMSSLKTEDTAVYYCAAGRYSRARGWEYDYWGQGTQVTVSSGGGGSEPKSSDKTHTCPPCPAPELLGGPCVFLFPPKPKDTLMISRTPEVTCVVVDVSHEDPEVKFNWYVDGVEVHNAKTKPREEQYNSTYRVVSVLTVLHQDWLNGKEYKCKVSNKALPAPIEKTISKAKGQPREPQVYTLPPSRDELTKNQVSLTCLVKGFYPSDIAVEWESNGQPENNYKTTPPVLDSDGSFFLTSKLTVDKSRWQQGNVFSCSVMHEALHNHYTQKSLCLSPGK
# modifications: MC-vc-PAB-MMAE on Cys of S239C and S442C (EU numbering)
# notes: Biparatopic knob-into-hole VHH-hFc heterodimer, DAR 4; The assignment of T366Y to the first named VHH and Y407T to the second follows the order of the name; No paragraph spells out this pair; also called A06-E10-hFc-vcPAB-MMAE; A06-E10 hFc-vc-MMAE
# B3: A06 F05-hFc (S239/442C T366Y/Y407T), [G4S]1 linker, MC-vc-PAB-MMAE conjugate, #712 (Fc fusion, DAR 4)
# chain 1: B1 chain 1
# chain 2: B2 chain 2 with V24A, L29F, S30G, K51R, E73D, D74N, S84N, A104V
# modifications: MC-vc-PAB-MMAE on Cys of S239C and S442C (EU numbering)
# notes: also called A06-F05-hFc-vcPAB-MMAE; A06-F05 hFc-vc-MMAE
# B4: E12 (VHH, not shown: small tags and cut ends)
# VHH: QVQLVESGGGSVQAGGSLRLSCAASGPSISNFAMGWFRQAPGKEREFVAGISWGGGRTNYLDSVKGRFTISRDNAKNMVHLQMNSLKPEDTTVYYCAGRYGRGRDVEYEYDYWGQGTQVTVSS
# How the values were obtained:
# [1] = biological target: T5, human ALPP (alkaline phosphatase, placental type) expressed on the surface of CHO cells (human, UniProt P05187 23-506); assay: flow cytometry on CHO-ALPP cells, apparent KD (KDapp)
# T5 construct: also called CHO-ALPP; hALPP
# Method: (§1) Biparatopic VHH-hFc drug conjugates were assessed for human ALPP, ALPPL2, ALPI and ALPL cell-surface binding by flow cytometry. Binders were screened on CHO cells stably expressing human ALPP, ALPPL2, ALPI or ALPL.
# (§2) Cell surface binding of test agents to hALPP isoforms was characterized in four CHO-ALPP isoform transfectant cell lines (CHO-ALPP, CHO-ALPPL2, CHO-ALPI and CHO-ALPL) and the resulting KDapp values determined. Adherent cells were detached from tissue culture flasks by incubating with 0.1% EDTA/PBS solution at 37° C. for […] or until cells detached easily. Cells were re-suspended in ice-cold PBS/2% FCS in 15 ml tubes and centrifuged at 1700 rpm for 5 mins at 4° C. Supernatant was removed and the cell pellet re-suspended in PBS/2% FCS. […] Cells were incubated with 100 μl of test agents at a range of concentrations, plus controls for 1 hr on ice. The sample plate was centrifuged at 1700 rpm for 5 mins at 4° C. The supernatant was removed, and a wash performed by re-suspending the cell pellets in 0.25 mL of ice-cold PBS/2% FCS using a multichannel pipette. Samples were again centrifuged at 1700 rpm for 5 min at 4° C. Supernatant was removed and two further washes performed as described. After the final wash and centrifugation step, excess liquid was removed by blotting the plate on tissue paper. Binding of VHH-hFc agents was determined by adding 100 μl of Fitc-anti-human Ab (ThermoFisher) and incubating for 30 mins on ice in the dark. Wash steps were performed as described previously. All cell pellets were finally re-suspended in 0.28 ml of ice-cold PBS/2% FCS and left on ice in the dark prior to analysis on a Merck-Millipore Guava EasyCyte HT or Thermo Fisher Attune N×T flow cytometer.
# [2] = biological target: T1, human ALPI (intestinal alkaline …); assay: cell-based or functional assay
# [3] = biological target: T6, human ALPPL2 (alkaline phosphatase, germ cell type) expressed on the surface of CHO cells (human, UniProt P10696 20-503); assay: cell-based or functional assay
# T6 sequence (P10696 20-503): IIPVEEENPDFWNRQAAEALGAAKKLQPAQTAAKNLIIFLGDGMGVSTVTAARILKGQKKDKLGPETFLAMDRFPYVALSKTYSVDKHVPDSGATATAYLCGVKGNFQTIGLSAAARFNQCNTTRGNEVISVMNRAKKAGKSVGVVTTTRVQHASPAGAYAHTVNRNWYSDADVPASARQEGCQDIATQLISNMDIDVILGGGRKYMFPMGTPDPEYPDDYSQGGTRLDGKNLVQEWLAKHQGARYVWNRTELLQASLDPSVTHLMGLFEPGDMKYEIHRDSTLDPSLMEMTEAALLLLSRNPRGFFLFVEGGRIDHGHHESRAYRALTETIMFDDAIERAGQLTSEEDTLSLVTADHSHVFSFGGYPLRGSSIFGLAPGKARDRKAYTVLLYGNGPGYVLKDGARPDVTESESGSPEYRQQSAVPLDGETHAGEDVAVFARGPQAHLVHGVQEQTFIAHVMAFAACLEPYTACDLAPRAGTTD
# [4] = biological target: T2, human ALPL (tissue non-specific …); assay: cell-based or functional assay
# [5] = biological target: T1, human ALPI (intestinal alkaline …); assay: flow cytometry on CHO-ALPI cells
# [6] = biological target: T6, human ALPPL2 (alkaline phosphatase, …); assay: flow cytometry on CHO-ALPPL2 cells, apparent KD (KDapp)
# Method: as §1, §2
# [7] = biological target: T2, human ALPL (tissue non-specific …); assay: flow cytometry, CHO-ALPL cells
# [8] = biological target: T3, Human ALPL (leucine zipper); assay: BLI, antigen immobilised
# Method: Binding kinetics were determined using the Biolayer Interferometry (BLI) Octet K2 system (Sartorius). […] All assays were conducted in PBS with a plate temperature of 25° C. Ka (M⁻¹s⁻¹), Kd (s⁻¹) and KD (nM) values were determined using Octet Data Analysis High Throughput software (ForteBio) for Biolayer Interferometry.
# ALPP CysHis = biological target: T7, ALPP CysHis (human, UniProt P05187 23-502); assay: ELISA, antigen coated
# T7 construct: Whole entry: engineered human ALPP with an introduced cysteine and a His tag; homodimer; also called engineered ALPP homodimer; hALPP (ELISA)
# From the text: (§3) ELISA was used to test the binding and specificity of the VHHs. […] Anti-Llama—HRP antibody was used for detection.
# ALPI His homodimer = biological target: T4, ALPI His homodimer; assay: ELISA, antigen coated
# From the text: as §3
binder,measurement,setting,value
B1,Kd,[1],11 nM
same,"IC50 at 96 h, cell-killing of CHO-ALPI cells (estimated from data extrapolation)",[2],~846 nM
same,"IC50 at 96 h, cell-killing of CHO-ALPPL2 cells",[3],18.1 nM
same,"IC50 at 96 h, cell-killing of CHO-ALPL cells (estimated from data extrapolation)",[4],~699 nM
same,MFI on CHO-ALPI cells at 350 nM as percent of MFI on CHO-ALPP cells (KDapp not-determinable),[5],≤ 1%
same,Kd,[6],5.6 nM
same,binding result,[7],no binding (tested: 350 nM (highest concentration))
B2,Kd,[1],13.4 nM
same,"IC50 at 96 h, cell-killing of CHO-ALPI cells (estimated from data extrapolation)",[2],~673 nM
same,"IC50 at 96 h, cell-killing of CHO-ALPPL2 cells",[3],14.1 nM
same,"IC50 at 96 h, cell-killing of CHO-ALPL cells (estimated from data extrapolation)",[4],~597 nM
same,MFI on CHO-ALPI cells at 350 nM as percent of MFI on CHO-ALPP cells (KDapp not-determinable),[5],≤ 1%
same,Kd,[6],7.6 nM
same,binding result,[7],no binding (tested: 350 nM (highest concentration))
B3,Kd,[1],10.6 nM
same,"IC50 at 96 h, cell-killing of CHO-ALPI cells (estimated from data extrapolation)",[2],~776 nM
same,"IC50 at 96 h, cell-killing of CHO-ALPPL2 cells",[3],14.8 nM
same,"IC50 at 96 h, cell-killing of CHO-ALPL cells (estimated from data extrapolation)",[4],~551 nM
same,MFI on CHO-ALPI cells at 350 nM as percent of MFI on CHO-ALPP cells (KDapp not-determinable),[5],≤ 1%
same,Kd,[6],5.7 nM
same,binding result,[7],no binding (tested: 350 nM (highest concentration))
B4,binding result,[8],no binding
same,binding result,ALPP CysHis,binds
same,binding result,ALPI His homodimer,no binding (tested: 500 ng VHH)
